The supplement of paper PMC10567573

B1: MED27 (parent)
chain: YNENVYTEDGKLDIWSKSNYQVFQ
B2: FAM98B (parent)
chain: QLDKNSEVYQEVQAMFDTLGIPKS

Variants of: B1
Test: protein stability index of a GFP-peptide fusion (GPS, HEK-293T) (PSI 1-6); higher = more stable
Conditions: c terminus: a fixed tail appended
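Also: lentivirally expressed fusions sorted by FACS into six bins by GFP to DsRed ratio, PSI derived from sequencing read proportions per bin multiplied by bin number.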

Variant	protein stability index
YNENVYTEDGKLDIWSKSNDQVFQ [Y20D]	3.38
YNENVYTEDGKLDIWSKSNEQVFQ [Y20E]	3.2
YNENVYTEDGKLDIWSKSNFQVFQ [Y20F]	2.25
YNENVYTEDGKLDIWSKSNGQVFQ [Y20G]	2.62
YNENVYTEDGKLDIWSKSNHQVFQ [Y20H]	2.58
YNENVYTEDGKLDIWSKSNIQVFQ [Y20I]	2.37
YNENVYTEDGKLDIWSKSNKQVFQ [Y20K]	2.76
YNENVYTEDGKLDIWSKSNLQVFQ [Y20L]	2.35
YNENVYTEDGKLDIWSKSNMQVFQ [Y20M]	1.92
YNENVYTEDGKLDIWSKSNNQVFQ [Y20N]	3.28
YNENVYTEDGKLDIWSKSNPQVFQ [Y20P]	3.01
YNENVYTEDGKLDIWSKSNQQVFQ [Y20Q]	2.94
YNENVYTEDGKLDIWSKSNRQVFQ [Y20R]	2.59
YNENVYTEDGKLDIWSKSNSQVFQ [Y20S]	2.72
YNENVYTEDGKLDIWSKSNTQVFQ [Y20T]	2.9
YNENVYTEDGKLDIWSKSNVQVFQ [Y20V]	2.52
YNENVYTEDGKLDIWSKSNWQVFQ [Y20W]	1.64
YNENVYTEDGKLDIWSKSNYAVFQ [Q21A]	2.46
YNENVYTEDGKLDIWSKSNYCVFQ [Q21C]	2.01
YNENVYTEDGKLDIWSKSNYDVFQ [Q21D]	2.41
YNENVYTEDGKLDIWSKSNYEVFQ [Q21E]	2.09
YNENVYTEDGKLDIWSKSNYFVFQ [Q21F]	1.79
YNENVYTEDGKLDIWSKSNYGVFQ [Q21G]	1.59

Variant	protein stability index
YNENVYTEDGKLDIWSKSNYHVFQ [Q21H]	2.64
YNENVYTEDGKLDIWSKSNYIVFQ [Q21I]	2.44
YNENVYTEDGKLDIWSKSNYKVFQ [Q21K]	2.44
YNENVYTEDGKLDIWSKSNYLVFQ [Q21L]	2.07
YNENVYTEDGKLDIWSKSNYMVFQ [Q21M]	2.21
YNENVYTEDGKLDIWSKSNYNVFQ [Q21N]	2.04
YNENVYTEDGKLDIWSKSNYPVFQ [Q21P]	1.98
YNENVYTEDGKLDIWSKSNYRVFQ [Q21R]	2.23
YNENVYTEDGKLDIWSKSNYSVFQ [Q21S]	1.97
YNENVYTEDGKLDIWSKSNYTVFQ [Q21T]	2.76
YNENVYTEDGKLDIWSKSNYVVFQ [Q21V]	1.82
YNENVYTEDGKLDIWSKSNYWVFQ [Q21W]	2.45
YNENVYTEDGKLDIWSKSNYYVFQ [Q21Y]	2.02
YNENVYTEDGKLDIWSKSNYQAFQ [V22A]	2.3
YNENVYTEDGKLDIWSKSNYQCFQ [V22C]	2.56
YNENVYTEDGKLDIWSKSNYQDFQ [V22D]	2.83
YNENVYTEDGKLDIWSKSNYQEFQ [V22E]	2.52
YNENVYTEDGKLDIWSKSNYQFFQ [V22F]	2.79
YNENVYTEDGKLDIWSKSNYQGFQ [V22G]	2.24
YNENVYTEDGKLDIWSKSNYQHFQ [V22H]	2.27
YNENVYTEDGKLDIWSKSNYQIFQ [V22I]	2.22
YNENVYTEDGKLDIWSKSNYQKFQ [V22K]	2.4
YNENVYTEDGKLDIWSKSNYQLFQ [V22L]	2.28

Variant	protein stability index
YNENVYTEDGKLDIWSKSNYQMFQ [V22M]	2.37
YNENVYTEDGKLDIWSKSNYQNFQ [V22N]	2.41
YNENVYTEDGKLDIWSKSNYQPFQ [V22P]	2.66
YNENVYTEDGKLDIWSKSNYQQFQ [V22Q]	2.73
YNENVYTEDGKLDIWSKSNYQRFQ [V22R]	2.21
YNENVYTEDGKLDIWSKSNYQSFQ [V22S]	2.5
YNENVYTEDGKLDIWSKSNYQTFQ [V22T]	2.45
YNENVYTEDGKLDIWSKSNYQWFQ [V22W]	1.76
YNENVYTEDGKLDIWSKSNYQYFQ [V22Y]	2.42
YNENVYTEDGKLDIWSKSNYQVAQ [F23A]	2.5
YNENVYTEDGKLDIWSKSNYQVCQ [F23C]	2.06
YNENVYTEDGKLDIWSKSNYQVDQ [F23D]	3.26
YNENVYTEDGKLDIWSKSNYQVEQ [F23E]	3.02
YNENVYTEDGKLDIWSKSNYQVGQ [F23G]	2.88
YNENVYTEDGKLDIWSKSNYQVHQ [F23H]	2.87
YNENVYTEDGKLDIWSKSNYQVIQ [F23I]	2.43
YNENVYTEDGKLDIWSKSNYQVKQ [F23K]	3.22
YNENVYTEDGKLDIWSKSNYQVLQ [F23L]	2.41
YNENVYTEDGKLDIWSKSNYQVMQ [F23M]	2.28
YNENVYTEDGKLDIWSKSNYQVNQ [F23N]	2.93
YNENVYTEDGKLDIWSKSNYQVPQ [F23P]	2.99
YNENVYTEDGKLDIWSKSNYQVQQ [F23Q]	3.29
YNENVYTEDGKLDIWSKSNYQVSQ [F23S]	1.4

Variant	protein stability index
YNENVYTEDGKLDIWSKSNYQVTQ [F23T]	3
YNENVYTEDGKLDIWSKSNYQVVQ [F23V]	2.38
YNENVYTEDGKLDIWSKSNYQVWQ [F23W]	2.16
YNENVYTEDGKLDIWSKSNYQVYQ [F23Y]	2.31
YNENVYTEDGKLDIWSKSNYQVFA [Q24A]	1.94
YNENVYTEDGKLDIWSKSNYQVFC [Q24C]	2.3
YNENVYTEDGKLDIWSKSNYQVFD [Q24D]	2.75
YNENVYTEDGKLDIWSKSNYQVFE [Q24E]	2.44
YNENVYTEDGKLDIWSKSNYQVFF [Q24F]	1.74
YNENVYTEDGKLDIWSKSNYQVFG [Q24G]	2.21
YNENVYTEDGKLDIWSKSNYQVFH [Q24H]	2.17
YNENVYTEDGKLDIWSKSNYQVFI [Q24I]	1.6
YNENVYTEDGKLDIWSKSNYQVFK [Q24K]	2.58
YNENVYTEDGKLDIWSKSNYQVFL [Q24L]	1.96
YNENVYTEDGKLDIWSKSNYQVFM [Q24M]	1.62
YNENVYTEDGKLDIWSKSNYQVFN [Q24N]	2.46
YNENVYTEDGKLDIWSKSNYQVFP [Q24P]	1.81
YNENVYTEDGKLDIWSKSNYQVFR [Q24R]	1.86
YNENVYTEDGKLDIWSKSNYQVFS [Q24S]	1.37
YNENVYTEDGKLDIWSKSNYQVFT [Q24T]	2.23
YNENVYTEDGKLDIWSKSNYQVFV [Q24V]	1.43
YNENVYTEDGKLDIWSKSNYQVFW [Q24W]	2.21
YNENVYTEDGKLDIWSKSNYQVFY [Q24Y]	2.01

Variants of: B2
Test: as above
Conditions: c terminus: a fixed tail appended

Variant	protein stability index
ALDKNSEVYQEVQAMFDTLGIPKS [Q1A]	2.91
CLDKNSEVYQEVQAMFDTLGIPKS [Q1C]	2.52
DLDKNSEVYQEVQAMFDTLGIPKS [Q1D]	4.18
ELDKNSEVYQEVQAMFDTLGIPKS [Q1E]	2.9
FLDKNSEVYQEVQAMFDTLGIPKS [Q1F]	2.2
GLDKNSEVYQEVQAMFDTLGIPKS [Q1G]	3.31
HLDKNSEVYQEVQAMFDTLGIPKS [Q1H]	3.64
ILDKNSEVYQEVQAMFDTLGIPKS [Q1I]	3.23
KLDKNSEVYQEVQAMFDTLGIPKS [Q1K]	3.2
LLDKNSEVYQEVQAMFDTLGIPKS [Q1L]	2.55
MLDKNSEVYQEVQAMFDTLGIPKS [Q1M]	2.79
NLDKNSEVYQEVQAMFDTLGIPKS [Q1N]	3.39
PLDKNSEVYQEVQAMFDTLGIPKS [Q1P]	3.53
RLDKNSEVYQEVQAMFDTLGIPKS [Q1R]	3.39
SLDKNSEVYQEVQAMFDTLGIPKS [Q1S]	2.96
TLDKNSEVYQEVQAMFDTLGIPKS [Q1T]	3.18
VLDKNSEVYQEVQAMFDTLGIPKS [Q1V]	2.7
WLDKNSEVYQEVQAMFDTLGIPKS [Q1W]	2.88
YLDKNSEVYQEVQAMFDTLGIPKS [Q1Y]	2.62
QADKNSEVYQEVQAMFDTLGIPKS [L2A]	4.38
QCDKNSEVYQEVQAMFDTLGIPKS [L2C]	4.07
QDDKNSEVYQEVQAMFDTLGIPKS [L2D]	4.67
QEDKNSEVYQEVQAMFDTLGIPKS [L2E]	5.34
QFDKNSEVYQEVQAMFDTLGIPKS [L2F]	3.51

Variant	protein stability index
QGDKNSEVYQEVQAMFDTLGIPKS [L2G]	4.76
QHDKNSEVYQEVQAMFDTLGIPKS [L2H]	4.13
QIDKNSEVYQEVQAMFDTLGIPKS [L2I]	3.08
QKDKNSEVYQEVQAMFDTLGIPKS [L2K]	4.27
QMDKNSEVYQEVQAMFDTLGIPKS [L2M]	3.23
QNDKNSEVYQEVQAMFDTLGIPKS [L2N]	4.36
QPDKNSEVYQEVQAMFDTLGIPKS [L2P]	4.66
QQDKNSEVYQEVQAMFDTLGIPKS [L2Q]	4.23
QRDKNSEVYQEVQAMFDTLGIPKS [L2R]	3.58
QSDKNSEVYQEVQAMFDTLGIPKS [L2S]	4.63
QTDKNSEVYQEVQAMFDTLGIPKS [L2T]	4.32
QVDKNSEVYQEVQAMFDTLGIPKS [L2V]	3.87
QWDKNSEVYQEVQAMFDTLGIPKS [L2W]	4.03
QYDKNSEVYQEVQAMFDTLGIPKS [L2Y]	4.08
QLAKNSEVYQEVQAMFDTLGIPKS [D3A]	3.46
QLCKNSEVYQEVQAMFDTLGIPKS [D3C]	2.21
QLEKNSEVYQEVQAMFDTLGIPKS [D3E]	3.87
QLFKNSEVYQEVQAMFDTLGIPKS [D3F]	2.73
QLGKNSEVYQEVQAMFDTLGIPKS [D3G]	3.73
QLHKNSEVYQEVQAMFDTLGIPKS [D3H]	3.43
QLIKNSEVYQEVQAMFDTLGIPKS [D3I]	1.95
QLKKNSEVYQEVQAMFDTLGIPKS [D3K]	3.45
QLLKNSEVYQEVQAMFDTLGIPKS [D3L]	2.06
QLMKNSEVYQEVQAMFDTLGIPKS [D3M]	2.16

Variant	protein stability index
QLNKNSEVYQEVQAMFDTLGIPKS [D3N]	3.47
QLPKNSEVYQEVQAMFDTLGIPKS [D3P]	3.11
QLQKNSEVYQEVQAMFDTLGIPKS [D3Q]	2.75
QLRKNSEVYQEVQAMFDTLGIPKS [D3R]	3.21
QLSKNSEVYQEVQAMFDTLGIPKS [D3S]	2.93
QLTKNSEVYQEVQAMFDTLGIPKS [D3T]	3.06
QLVKNSEVYQEVQAMFDTLGIPKS [D3V]	2.67
QLWKNSEVYQEVQAMFDTLGIPKS [D3W]	2.08
QLYKNSEVYQEVQAMFDTLGIPKS [D3Y]	2.49
QLDANSEVYQEVQAMFDTLGIPKS [K4A]	3.04
QLDCNSEVYQEVQAMFDTLGIPKS [K4C]	3
QLDDNSEVYQEVQAMFDTLGIPKS [K4D]	3.44
QLDENSEVYQEVQAMFDTLGIPKS [K4E]	3.62
QLDFNSEVYQEVQAMFDTLGIPKS [K4F]	2.93
QLDGNSEVYQEVQAMFDTLGIPKS [K4G]	3.5
QLDHNSEVYQEVQAMFDTLGIPKS [K4H]	3.43
QLDINSEVYQEVQAMFDTLGIPKS [K4I]	2.56
QLDLNSEVYQEVQAMFDTLGIPKS [K4L]	3.39
QLDMNSEVYQEVQAMFDTLGIPKS [K4M]	2.85
QLDNNSEVYQEVQAMFDTLGIPKS [K4N]	3.67
QLDPNSEVYQEVQAMFDTLGIPKS [K4P]	3
QLDQNSEVYQEVQAMFDTLGIPKS [K4Q]	3.03
QLDRNSEVYQEVQAMFDTLGIPKS [K4R]	2.95
QLDSNSEVYQEVQAMFDTLGIPKS [K4S]	3.52

Variant	protein stability index
QLDTNSEVYQEVQAMFDTLGIPKS [K4T]	3.08
QLDVNSEVYQEVQAMFDTLGIPKS [K4V]	2.2
QLDWNSEVYQEVQAMFDTLGIPKS [K4W]	3.04
QLDYNSEVYQEVQAMFDTLGIPKS [K4Y]	3.39
QLDKASEVYQEVQAMFDTLGIPKS [N5A]	3.56
QLDKCSEVYQEVQAMFDTLGIPKS [N5C]	3.37
QLDKDSEVYQEVQAMFDTLGIPKS [N5D]	4.66
QLDKESEVYQEVQAMFDTLGIPKS [N5E]	3.86
QLDKFSEVYQEVQAMFDTLGIPKS [N5F]	3.41
QLDKGSEVYQEVQAMFDTLGIPKS [N5G]	3.98
QLDKHSEVYQEVQAMFDTLGIPKS [N5H]	3.94
QLDKISEVYQEVQAMFDTLGIPKS [N5I]	2.88
QLDKKSEVYQEVQAMFDTLGIPKS [N5K]	3.88
QLDKLSEVYQEVQAMFDTLGIPKS [N5L]	2.69
QLDKMSEVYQEVQAMFDTLGIPKS [N5M]	3.24
QLDKPSEVYQEVQAMFDTLGIPKS [N5P]	4.37
QLDKQSEVYQEVQAMFDTLGIPKS [N5Q]	4.22
QLDKRSEVYQEVQAMFDTLGIPKS [N5R]	3.55
QLDKSSEVYQEVQAMFDTLGIPKS [N5S]	3.97
QLDKTSEVYQEVQAMFDTLGIPKS [N5T]	4.11
QLDKVSEVYQEVQAMFDTLGIPKS [N5V]	3.99
QLDKWSEVYQEVQAMFDTLGIPKS [N5W]	2.91
QLDKYSEVYQEVQAMFDTLGIPKS [N5Y]	2.83
QLDKNAEVYQEVQAMFDTLGIPKS [S6A]	3.6
